B1: TPR t1 (parent)
chain: GACCAAUCUGCCCUCAGAGCUCGAGAACAUCUUCGGAUGCAGAGGAGGCAGGCUUCGGUGGCGCGAUAGCGCCAACGUCCUCAACCUCCAAUGCAUCCCACCACAUGAUGAUGCCUGAAGAGCCUUGGUUUUUUG

This data set covers variants of B1. Put plainly: polymerase ribozyme fitness, log enrichment relative to wild type (log ratio); higher = more active; in vitro selection for triplet polymerase activity. The method, boiled down: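 One round of in vitro selection, in triplicate, was applied to PCR-built, transcribed mutant libraries of each subunit of a heterodimeric triplet polymerase ribozyme. The steps were annealing with a biotinylated primer, partner subunit and triplets, incubation frozen at −7 °C, gel excision of extended constructs, streptavidin-bead capture and RT-PCR. Fitness is the logarithm, base 2, of genotype enrichment over wild-type enrichment from inverse-variance-weighted replicate averages of Illumina-sequenced inputs and outputs, keeping genotypes with ≥10 input reads and ≥1 read per output.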
Turning to GACCAAUCUGCCCUCAUAGCUCGAGAACAUCUUCGGAUGCAGUGGAGUCAGGCUUCGGUGGCGCGAUAGCGCCGACGUCCUCAACCUCCAAUGCAUCCCACCACAUGAUGAUGCCUGAAGAGCCUUGGUUUUUUG [G17U A43U G48U A74G], the “polymerase ribozyme fitness (log ratio)” value is -3.04. With GACCAAUCUGACCUCAGAGCUCGAGAACAUCUUCGGAUGCAGAGGAGGAAGGCUUCGGUGGCGCGAUAACGCCAACGUCCUCAACCUCCAAUGCAUCCCACCACAUGAUGAUACCUGAAGAGCCUUGCUUUUUUG [C11A C49A G69A G113A G128C] the figure was -6.11; with GACCAAUCAGCCCUCAGAGCUCGAGAACAUCUUCGGAUGCAGAGAAGGCAGGCUUCGGUGGCGCGAUAGCGCCAACGUCCUCAACCUCCAAUGCAUCCCACCACAUGAUGAUGCCUGAAGAGCCUUGGUUUUUUG [U9A G45A], -0.107. For GACCAAUCUGCCCUCAGAGCUCGAGAACAUCUUCGGAUGCAGAGGAGGCAGGCUUCGGUGGCGCGAUAGCGCCUACGUCCUCAACCGCCAAUGCAUCCCACCACAUGAUGAUGCCUGAAGAGCCUUGGUUUUUUG [A74U U87G], the “polymerase ribozyme fitness (log ratio)” value amounted to 0.353.

As to GACCAAUCUGCCCUCAGAGCUCGAGAACAUCUUCGGAUGCAGAGGAGGCAGGCUUCGAUGGCGCGAUAGCGCCAACGUCCUCAACCUCCCAUGCAUCCCACCACAUGAUGAUGCCUGAAGAGCCUUGGUUUUUUG [G58A A90C], the “polymerase ribozyme fitness (log ratio)” value is -1.28. For the variant GACCAAUCUGCCCUCAGAGCUCGAGCACAUCUUCGGAUGCAGAGGAGGCAGGCUUCGGUGGCGCGAUAGCGCCAACGUCCUCAACCUCCAAUGCAUCCCACCACAGGAUGAUGCCUGAAGAGCCUUGGUUUUUUG [A26C U106G], the “polymerase ribozyme fitness (log ratio)” value is -6.98. With GACCAAUCUGCCCUCAGAGCCCGAGAACAUCUUCGGAUGCAGAGGAGGCAGGCUUCGGUUGCGCGAUAGCGCCAACGUCCUCAACCUCCAAUGCAUCCCACCACAUGAUAAUGCCUGAAGAGCCUUGGUUUUUUG [U21C G60U G110A] the figure was -3.6; with GACCAAUCUGCCCUCAGAGCUCGAGAACAUCUUCGGAUGCAGAGGAGGCAGGCUUAGGUAGCGCGAUAGCGCCAACGUCCUCAACCUCCAAUGCAUCCCACCACAUGAUGAUGCCUGAAGAGCCUUGGUUUUUUG [C56A G60A], -0.181. In the case of GACCAAUCUGCCCUCAGAGCUCGAGCACAUCUUCGGAUGCAGAGGAGGCAGGCUUCGGUGGCGCGAUAUCGCCAACGUCCUCAACCUCCAAUGCAUCCCACCACAUGAUGAUGCCUGAAGAGCCUUGGUUUUUUG [A26C G69U], the “polymerase ribozyme fitness (log ratio)” value was -3.86. Take GACCAAUCUGCCCUCAGAGCUCGAGAACAUCUUCGGAUGCAGAGGAGGCAGGCUUCGGUGCCGCGAUAGCGCCAACGUCCUCAACCUCCAAUGCAUCUCACCACAUGAUGAUGCCUGAAGAGCCUUGGUUUUUUG [G61C C98U]: the “polymerase ribozyme fitness (log ratio)” value is -2.55. With GACCAAUCUGCCCUCAGAGCUCGAGAACAUCUUCGGAUGCUGAGGAGGCAGGCUUCGGUGGCGCGAUAGAGCCAACGUCCUCAACCUCGAAUGCAUACCACCACCUGAUUAUGCCUGAAGAGCCUUGGUUUUUUG [A41U C70A C89G C97A A105C G110U], the “polymerase ribozyme fitness (log ratio)” value is -5.8. In the case of GACCAAUGUGCCCUCAGAGCUCGAGAACAUCUUCGGAUGCAGCGGAGGCUGGCUUCGGUGGCGCGAUAGCGCCAACGUCCUCAACCUCCAAUGCAUCCCACCACAUGAUGAUGCUUGAAGAGCCUUUGUUUUUUG [C8G A43C A50U C115U G127U], the “polymerase ribozyme fitness (log ratio)” value is -4.94.

GACCAAUCUGCCCUCAGAGCUCGAGAAUAUCUUCGGAUGCAGAGGAGGCAGGCUUCGGUGGCGCGAUAGCGGCAACGUCCUCAACCUCCAAUGCAUCCCACCACAUGAUGAUGCCUGAAGAGCCUUGGUUUUUUG [C28U C72G]: the “polymerase ribozyme fitness (log ratio)” value is -2.23. With GACGAAUCCGCCCUCAGAGCUCGAGAACAUCUUCGGAUGCAGGGGAAGCAGGCUUCGGUGGCGCGAUAGUGCCAACGUCCUCAACCUCCAAUGCAUCCCACCACAUGAUGAUGCCUGAAGAGCCUUGGUUUUUUG [C4G U9C A43G G47A C70U] the figure was -4.92; with GACCAAUCUGCACUCAAAGCUCGAGAACAUCUUCGGAUGCAGAGGAGGCAGGCUUCGGUGGCGCGAUAGCGCCAACGUCCUCAACCUCCAAUGCAUCCCACCACAUGAUGUUGCCCGAAGAGCCUUGGUUUUUUG [C12A G17A A111U U116C], -6.09; with GACCAAUCUGCCCUCAGCGUUCGAGAACAUCUUCGGAUGCAGAGGAGGCAGGCUUCGGUGGCGCGAUAGCGCCAACGUCCUCAACCUCCAAUGCAUCCCACCACAUGAUCAUGCCUGAAGAGCCUUGGUUUUUUG [A18C C20U G110C], -6.35.

Turning to GACCAAUCUGCCCUCAGAGCUCGAGAACAUCUUCGGAUGCAGAGGAGGCAGGCUUCUGUGGCGCGAUAGCGCCAACGUCCUCAACCUCCAAUGCAUCCCACCACAUGAUGAUGCCUGAAGAACCUUGGUUUUUUG [G57U G122A], the “polymerase ribozyme fitness (log ratio)” value was -1.56. As for GACCAAUCUGCCCUCAGAGCUCGAGAACAUCUUCGGAUGCAGAGGAGGCAGGCUUCGGUGGCGCGAUAGCGCCAACGUCCUCAACCUCCAAUGCAUCCCACCACAUGUUGAUGCCUGAAGAGCCUUGGUUUUUUG [A108U], the “polymerase ribozyme fitness (log ratio)” value was -4.97. Turning to GACCAAUCUGCCCUCAGAGCUCGAGAACAUCUUCGAAUGCAGAGGAGGCAGGCUUCGGUGGCGCGAUAGCGCCAACGUCCUCAACCUCCAAUGCAUCCCACCACAUGAUGAUUCCUGAUGAGCCUUGGUUUUUUG [G36A G113U A119U], the “polymerase ribozyme fitness (log ratio)” value was -4.19. With GACCAAUCUCCCCUCAGAGCUCGAGAACAUCUUCGGAUGCAGAGGAGGCAGGCUUCGGUGGCGCGAUAGCGCCAACGUCCUCAACCUCCAAUGCAUCCCACCACAUGAUGAGGCCUGAAGAGCCUUGGUUUUUUG [G10C U112G] the figure was 0.149; with GACCAUUCUUCCAUCAGAGCUAGAGAACAUCUUCGGAUGCAGAGGAGGUAGGCUUCGGUGGCACGAUAGCGCCAACGUCCUCAACCUCCAAUGCAUCCCACCACAUGAUGAUGCCUGAAGAGCCUUGGUUUUUUG [A6U G10U C13A C22A C49U G63A], -5.88.

Values taken from the RNAGym collection of RNA variant scans (doi:10.1073/pnas.2313332121).
